The assay has as its target CMG2-Fc fusion protein (capillary morphogenesis protein 2 amino acids 1-225 fused to the Fc fragment of human IgG1) (human) (UniProt P58335). Nature of the assay: BLI. For orientation: BLI is a label-free optical method that tracks binding on a fibre tip over time.
UniProt P58335, sequence (P58335 34-225): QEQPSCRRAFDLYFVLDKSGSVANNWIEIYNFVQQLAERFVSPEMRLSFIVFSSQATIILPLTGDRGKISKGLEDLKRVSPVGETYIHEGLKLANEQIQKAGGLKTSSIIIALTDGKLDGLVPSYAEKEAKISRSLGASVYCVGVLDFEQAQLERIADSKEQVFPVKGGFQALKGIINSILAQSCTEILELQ

In the case of “protective antigen (PA) of anthrax toxin (natural protein)”, the Kd (as a rule, the equilibrium constant for the complex coming apart) is 0.84 nM; the koff (in general, the rate constant with which the complex falls apart) came out at 9.7e-06 s⁻¹; the kon (in general, the second-order rate constant of association) was 11500 M⁻¹ s⁻¹.

These data come from paper PMC4125234.
